From patent publication US7371551B1, “Feedback-resistant homoserine transsuccinylases” (priority 2002, dated 2008)

Assays:
[1] = tested on: homoserine transsuccinylase; assay: Homoserine transsuccinylase activity test (Lee et al.), 5,5'-dithiobis(2-nitrobenzoic acid), absorption at 412 nm, with and without SAM; assay type: biochemical, E. coli; details: cell extract; 3 mM homoserine, 0.3 mM succinyl-CoA, 50 mM potassium phosphate buffer pH 7.5
Description: In order to determine the sensitivity of the activity of the different homoserine transsuccinylases to SAM, it is possible, for example, to carry out an activity test as described in Lee L. W. et al., J. Biol. Chem. 241, 5479-5480 (1966). In this method, the enzyme extract is incubated with homoserine and succinyl-CoA. After various times, a part of the test assay sample is stopped by adding it to a mixture of ethanol, water, and 5,5′-dithiobis(2-nitrobenzoic acid). The absorption is determined photometrically at 412 nm. The described test is suitable, for example, for determining the sensitivity of the homoserine transsuccinylases to SAM.
The influence of SAM on the activities of the different homoserine transsuccinylases was determined by quantifying the activity in the presence of different concentrations of SAM (Cl salt, Sigma). The cell extracts were grown and prepared as described in Example 3. The activity test was carried out as described in Lee L. W. et al., J. Biol. Chem. 241, 5479-5480 (1966), with the enzyme extract being incubated with 50 mM potassium phosphate buffer, pH 7.5, 3 mM homoserine and 0.3 mM succinyl-CoA. After various times, 100 μl volumes of test mixture were stopped by adding them in each case to a mixture of 400 μl of ethanol, 400 μl of water and 100 μl of 10 mM 5,5′-dithiobis(2-nitrobenzoic acid). After the resulting mixture had been incubated at room temperature for 5 minutes, the absorption was determined photometrically at 412 nm. After the protein concentration had been determined, the enzyme activity was calculated using the extinction coefficient. The Ki was determined as a measure of the ability of SAM to inhibit the activity.

[2] = tested on: homoserine transsuccinylase; assay: Homoserine transsuccinylase enzyme test using cell extracts, decrease in extinction at 232 nm, with and without L-methionine; assay type: biochemical, E. coli; details: cell extract of E. coli W3110 transformants; 1 mM homoserine, 0.1 mM succinyl-CoA, 50 mM Tris/Cl pH 7.6
Text: Any method which enables the activity of the enzyme to be determined in the presence of L-methionine or SAM can be used for determining the sensitivity of the homoserine transsuccinylase to L-methionine and/or SAM. For example, the homoserine transsuccinylase activity can be determined by following the method described by Kredich and Tomkins for determining the activity of serine acetyltransferases (Kredich N. M. and Tomkins G. M., J. Biol. Chem. 241, 4955-4965 (1966)). The enzyme activity is measured in an assay sample which contains homoserine and succinyl-CoA. The reaction is started by adding enzyme and monitored in a spectrophotometer by way of the decrease in the extinction at 232 nm which results from cleavage of the thioester bond in the succinyl-coenzyme A. The described test is suitable for determining the sensitivity of the homoserine transsuccinylases to methionine. The inhibition of homoserine transsuccinylase activity is tested in the presence of different concentrations of L-methionine in the reaction mixture.
The activity, and the influence of L-methionine on the activity, of the different homoserine transsuccinylases were determined by means of an enzyme test using cell extracts in which the respective proteins had been produced. For this, the corresponding plasmids, encoding altered homoserine transsuccinylases, were introduced, by transformation, into the E. coli strain W3110 (ATCC 27325) using methods known to the skilled person. The transformation mixture was spread on LB-tetracycline agar plates (10 g of tryptone/l, 5 g of yeast extract/l, 5 g of NaCl/l, 15 g of agar/l and 15 mg of tetracycline/l) and incubated at 37° C. overnight. The resulting transformants were grown in SM1 medium (for 1 l of medium: CaCl2×2H2O, 0.0147 g, MgSO4×7H2O, 0.3 g, Na2MoO4×2H2O, 0.15 mg, H3BO3, 2.5 mg, CoCl2×6H2O, 0.7 mg, CuSO4×5H2O, 0.25 mg, MnCl2×4H2O, 1.6 mg, ZnSO4×7H2O, 0.3 mg, KH2PO4, 3.0 g, K2HPO4, 12.0 g, (NH4)2SO4, 5 g, NaCl, 0.6 g, FeSO4×7H2O, 0.002 g, Na3-citrate×2H2O, 1 g, glucose, 5 g, tryptone, 1 g, yeast extract, 0.5 g), centrifuged down at an absorption of approx. 0.8 at 600 nm, washed in 50 mM Tris pH 7.5, and centrifuged down once again. The cells were resuspended in 50 mM Tris/Cl, pH 7.5, 2 mM dithiothreitol, 0.5 mM phenylmethylsulfonyl fluoride and disrupted in a French press. The supernatant from a further centrifugation was used as the enzyme extract in the test. The enzyme activity was determined, in a mixture containing 50 mM Tris/Cl, pH 7.6, 1 mM homoserine and 0.1 mM succinyl-CoA, by photometrically quantifying, by means of the decrease in the extinction at 232 nm, the coenzyme A formed in the reaction, following the method described by Kredich and Tomkins for determining the activity of serine acetyltransferases (Kredich N. M. and Tomkins G. M., J. Biol. Chem. 241, 4955-4965 (1966)). The effect of added L-methionine on the activity was determined and the inhibitability was quantified as a Ki value. The Ki which is determined is the concentration of L-methionine at which the activity of the homoserine transsuccinylase is only 50% of its activity in the absence of L-methionine.

Row | Molecule | Activity (U/mg) [1] | Activity (U/mg) [2]
1 | pSLmetA*0: MetA variant in which amino acid 294 is deleted (protein, UniProt P07623 2-309, looked up, variant Y294*) Homoserine …: PIRVPDELPAVNFLREENVFVMTTSRASGQEIRPLKVLILNLMPKKIETENQFLRLLSNSPLQVDIQLLRIDSRESRNTPAEHLNNFYCNFEDIQDQNFDGLIVTGAPLGLVEFNDVAYWPQIKQVLEWSKDHVTSTLFVCWAVQAALNILYGIPKQTRTEKLSGVYEHHILHPHALLTRGFDDSFLAPHSRYADFPAALIRDYTDLEILAETEEGDAYLFASKDKRIAFVTGHPEYDAQTLAQEFFRDVEAGLDPDVPYNYFPHNDPQNTPRASWRSHGNLLFTNWLNYYVQITPYDLRHMNPTLD | 0.33 U/mg | 0.085 U/mg
2 | pKP413GAP: E. coli wild-type homoserine transsuccinylase (MetA; Asp101, Tyr294) expressed from starting plasmid pKP413GAP (protein, UniProt P07623 2-309, looked up) Homoserine …: PIRVPDELPAVNFLREENVFVMTTSRASGQEIRPLKVLILNLMPKKIETENQFLRLLSNSPLQVDIQLLRIDSRESRNTPAEHLNNFYCNFEDIQDQNFDGLIVTGAPLGLVEFNDVAYWPQIKQVLEWSKDHVTSTLFVCWAVQAALNILYGIPKQTRTEKLSGVYEHHILHPHALLTRGFDDSFLAPHSRYADFPAALIRDYTDLEILAETEEGDAYLFASKDKRIAFVTGHPEYDAQTLAQEFFRDVEAGLDPDVPYNYFPHNDPQNTPRASWRSHGNLLFTNWLNYYVYQITPYDLRHMNPTLD | 0.62 U/mg | 0.155 U/mg
3 | pSLmetAN: MetA variant with Asn instead of Asp at position 101 (protein, UniProt P07623 2-309, looked up, variant D101N) Homoserine …: PIRVPDELPAVNFLREENVFVMTTSRASGQEIRPLKVLILNLMPKKIETENQFLRLLSNSPLQVDIQLLRIDSRESRNTPAEHLNNFYCNFEDIQDQNFNGLIVTGAPLGLVEFNDVAYWPQIKQVLEWSKDHVTSTLFVCWAVQAALNILYGIPKQTRTEKLSGVYEHHILHPHALLTRGFDDSFLAPHSRYADFPAALIRDYTDLEILAETEEGDAYLFASKDKRIAFVTGHPEYDAQTLAQEFFRDVEAGLDPDVPYNYFPHNDPQNTPRASWRSHGNLLFTNWLNYYVYQITPYDLRHMNPTLD | 0.30 U/mg | 0.050 U/mg
4 | pSLmetA*Q: MetA variant with Gln instead of Tyr at position 294 (protein, UniProt P07623 2-309, looked up, variant Y294Q) Homoserine …: PIRVPDELPAVNFLREENVFVMTTSRASGQEIRPLKVLILNLMPKKIETENQFLRLLSNSPLQVDIQLLRIDSRESRNTPAEHLNNFYCNFEDIQDQNFDGLIVTGAPLGLVEFNDVAYWPQIKQVLEWSKDHVTSTLFVCWAVQAALNILYGIPKQTRTEKLSGVYEHHILHPHALLTRGFDDSFLAPHSRYADFPAALIRDYTDLEILAETEEGDAYLFASKDKRIAFVTGHPEYDAQTLAQEFFRDVEAGLDPDVPYNYFPHNDPQNTPRASWRSHGNLLFTNWLNYYVQQITPYDLRHMNPTLD | 0.21 U/mg | 0.065 U/mg
5 | pSLmetA*L: MetA variant with Leu instead of Tyr at position 294 (protein, UniProt P07623 2-309, looked up, variant Y294L) Homoserine …: PIRVPDELPAVNFLREENVFVMTTSRASGQEIRPLKVLILNLMPKKIETENQFLRLLSNSPLQVDIQLLRIDSRESRNTPAEHLNNFYCNFEDIQDQNFDGLIVTGAPLGLVEFNDVAYWPQIKQVLEWSKDHVTSTLFVCWAVQAALNILYGIPKQTRTEKLSGVYEHHILHPHALLTRGFDDSFLAPHSRYADFPAALIRDYTDLEILAETEEGDAYLFASKDKRIAFVTGHPEYDAQTLAQEFFRDVEAGLDPDVPYNYFPHNDPQNTPRASWRSHGNLLFTNWLNYYVLQITPYDLRHMNPTLD | 0.29 U/mg | 0.070 U/mg
6 | pSLmetA*A: MetA variant with Ala instead of Tyr at position 294 (protein, UniProt P07623 2-309, looked up, variant Y294A) Homoserine …: PIRVPDELPAVNFLREENVFVMTTSRASGQEIRPLKVLILNLMPKKIETENQFLRLLSNSPLQVDIQLLRIDSRESRNTPAEHLNNFYCNFEDIQDQNFDGLIVTGAPLGLVEFNDVAYWPQIKQVLEWSKDHVTSTLFVCWAVQAALNILYGIPKQTRTEKLSGVYEHHILHPHALLTRGFDDSFLAPHSRYADFPAALIRDYTDLEILAETEEGDAYLFASKDKRIAFVTGHPEYDAQTLAQEFFRDVEAGLDPDVPYNYFPHNDPQNTPRASWRSHGNLLFTNWLNYYVAQITPYDLRHMNPTLD | 0.26 U/mg | 0.063 U/mg
7 | pSLmetA*P: MetA variant with Pro instead of Tyr at position 294 (protein, UniProt P07623 2-309, looked up, variant Y294P) Homoserine …: PIRVPDELPAVNFLREENVFVMTTSRASGQEIRPLKVLILNLMPKKIETENQFLRLLSNSPLQVDIQLLRIDSRESRNTPAEHLNNFYCNFEDIQDQNFDGLIVTGAPLGLVEFNDVAYWPQIKQVLEWSKDHVTSTLFVCWAVQAALNILYGIPKQTRTEKLSGVYEHHILHPHALLTRGFDDSFLAPHSRYADFPAALIRDYTDLEILAETEEGDAYLFASKDKRIAFVTGHPEYDAQTLAQEFFRDVEAGLDPDVPYNYFPHNDPQNTPRASWRSHGNLLFTNWLNYYVPQITPYDLRHMNPTLD | 0.15 U/mg | 0.020 U/mg
8 | pSLmetA*K: MetA variant with Lys instead of Tyr at position 294 (protein, UniProt P07623 2-309, looked up, variant Y294K) Homoserine …: PIRVPDELPAVNFLREENVFVMTTSRASGQEIRPLKVLILNLMPKKIETENQFLRLLSNSPLQVDIQLLRIDSRESRNTPAEHLNNFYCNFEDIQDQNFDGLIVTGAPLGLVEFNDVAYWPQIKQVLEWSKDHVTSTLFVCWAVQAALNILYGIPKQTRTEKLSGVYEHHILHPHALLTRGFDDSFLAPHSRYADFPAALIRDYTDLEILAETEEGDAYLFASKDKRIAFVTGHPEYDAQTLAQEFFRDVEAGLDPDVPYNYFPHNDPQNTPRASWRSHGNLLFTNWLNYYVKQITPYDLRHMNPTLD | 0.14 U/mg | 0.048 U/mg
9 | pKP446: MetA variant with Cys instead of Tyr at position 294 (protein, UniProt P07623 2-309, looked up, variant Y294C) Homoserine …: PIRVPDELPAVNFLREENVFVMTTSRASGQEIRPLKVLILNLMPKKIETENQFLRLLSNSPLQVDIQLLRIDSRESRNTPAEHLNNFYCNFEDIQDQNFDGLIVTGAPLGLVEFNDVAYWPQIKQVLEWSKDHVTSTLFVCWAVQAALNILYGIPKQTRTEKLSGVYEHHILHPHALLTRGFDDSFLAPHSRYADFPAALIRDYTDLEILAETEEGDAYLFASKDKRIAFVTGHPEYDAQTLAQEFFRDVEAGLDPDVPYNYFPHNDPQNTPRASWRSHGNLLFTNWLNYYVCQITPYDLRHMNPTLD | 0.49 U/mg | 0.133 U/mg
